Reference: article PMC9400901, “Advanced Insights into Catalytic and Structural Features of the Zinc‐Dependent Alcohol Dehydrogenase from Thauera aromatica” (Chembiochem, 2022)

What was measured:
Type in all cases: biochemical, Thauera aromatica
[1] = substrate: O=C1CCCCC1Cl; assay: Michaelis-Menten kinetics, reduction; photometric standard assay or FDH-coupled biotransformation; details: NADH 0.25 mmol L^−1, potassium phosphate pH 6.5, room temperature, 1 % (v/v) DMSO, racemic substrate
Text: (§1) Michaelis-Menten kinetics, reduction; photometric standard assay or FDH-coupled biotransformation on ThaADH

[2] = substrate: O=C1CCCCC1Br; assay: as above; details: NADH 0.25 mmol L^−1, potassium phosphate pH 6.5, room temperature, 3 % (v/v) DMSO, racemic substrate
Text: as §1

[3] = substrate: O=C1CCCCC1=O; assay: as above; details: NADH 0.25 mmol L^−1, 100 mmol L^−1 potassium phosphate pH 6.5, room temperature, solubility limit reached
Text: as §1

purified protein [4] = substrate: NC(=O)c1ccc[n+]([C@@H]2C[C@H](COP(=O)(O)OP(=O)(O)OC[C@H]3O[C@@H](n4cnc5c(N)ncnc54)[C@H](O)[C@@H]3O)[C@@H](O)[C@H]2O)c1; assay: purified protein; details: oxidation, co-substrate not given, standard assay pH 9.0, 40 °C, pH 9.0, varied: cofactor
purified protein [5] = substrate: NC(=O)C1=CN([C@@H]2O[C@H](COP(=O)(O)OP(=O)(O)OC[C@H]3O[C@@H](n4cnc5c(N)ncnc54)[C@H](O)[C@@H]3O)[C@@H](O)[C@H]2O)C=CC1; assay: purified protein; details: reduction, co-substrate not given, standard assay pH 6.5, 40 °C, pH 6.5, varied: cofactor
purified protein [6] = substrate: NC(=O)c1ccc[n+]([C@@H]2O[C@H](COP(=O)(O)OP(=O)(O)OC[C@H]3O[C@@H](n4cnc5c(N)ncnc54)[C@H](O)[C@@H]3O)[C@@H](O)[C@H]2O)c1; assay: purified protein; details: oxidation, co-substrate not given, standard assay pH 9.0, 40 °C, pH 9.0, varied: cofactor
purified protein [7] = substrate: CC1=CC(O)CCC1; assay: purified protein; details: oxidation, standard assay: NAD+ 1 mmol L^−1, 100 mmol L^−1 HEPES pH 9.0, 40 °C, pH 9.0

B1: ThaADH (Thauera aromatica) (protein)
chain: MSSNPHRWMMTSPGAPMVRAEFEIGELSADQVVVAVAGCGVCHTDLGYYYDSVRTNHALPLALGHEISGRVVQAGANAAQWLGRAVIVPAVMPCGTCELCTSGHGTICRDQVMPGNDIQGGFASHVVVPARGLCPVDEARLAAAGLQLADVSVVADAVTTPYQAVLQAGVEPGDVAVVIGVGGVGGYAVQIANAFGASVVAIDVDPAKLEMMSKHGAALTLNAREISGRDLKKAIEAHAKANGLRLTRWKIFECSGTGAGQTSAYGLLTHGATLAVVGFTMDKVEVRLSNLMAFHARALGNWGCLPEYYPAALDLVLDKKIDLASFIERHPLDQIGEVFAAAHAHKLTRRAILTP
notes: full-length WT, recombinant in E. coli BL21(DE3), pET22b; C-terminal Strep-tag for all kinetics, N-terminal His-tag for crystals; about 40 kDa monomer, dimer in solution (89 kDa by SEC; tetramer and higher in blue native PAGE), two zinc per monomer
B1 gave a Km [1] of 33.1 ± 10.4 mM, a Vmax [1] of 14.9 µmol/min/mg and a kcat [1] of 10.9 ± 1.38 s⁻¹. The kcat/Km [1] was 330 ± 150 M⁻¹ s⁻¹, the Km [2] was 24.1 ± 6.8 mM and the Vmax [2] was 6.3 µmol/min/mg. The kcat [2] was 4.62 ± 0.47 s⁻¹, the kcat/Km [2] was 190 ± 70 M⁻¹ s⁻¹ and the Km [3] was 68.1 ± 33.8 mM. It also gave a Vmax [3] of 53.3 µmol/min/mg, a kcat [3] of 39.1 ± 10.1 s⁻¹ and a kcat/Km [3] of 570 ± 430 M⁻¹ s⁻¹. For the same protein, the Km (purified protein [4]) was 0.7 ± 0.1 mM, the Vmax (purified protein [4]) was 0.9 µmol/min/mg and the kcat (purified protein [4]) was 0.66 ± 0.04 s⁻¹. The kcat/Km (purified protein [4]) was 940 ± 190 M⁻¹ s⁻¹, the Km (purified protein [5]) was 0.07 ± 0.02 mM and the Vmax (purified protein [5]) was 9.1 µmol/min/mg. The kcat (purified protein [5]) was 6.63 ± 0.74 s⁻¹, the kcat/Km (purified protein [5]) was 94700 ± 37600 M⁻¹ s⁻¹ and the Km (purified protein [6]) was 1.0 ± 0.2 mM. For the same protein, the Vmax (purified protein [6]) was 2.2 µmol/min/mg, the kcat (purified protein [6]) was 1.63 ± 0.1 s⁻¹ and the kcat/Km (purified protein [6]) was 1630 ± 430 M⁻¹ s⁻¹. For the same protein, the Km (purified protein [7]) was 21.6 ± 1.9 mM, the Vmax (purified protein [7]) was 2.4 µmol/min/mg and the kcat (purified protein [7]) was 1.77 ± 0.05 s⁻¹. The kcat/Km (purified protein [7]) was 80 ± 10 M⁻¹ s⁻¹.
